# Where two headings read alike, the source gives them in different places.
# Columns and labels:
# [1] = target: T1, human c-Met on cells (NCI-H441, NCI-H292, U87-MG) (human, UniProt P08581 25-1390); assay: cell-based or functional assay
# [2] = target: T2, Recombinant human c-Met Fc chimera (human, UniProt P08581 16-932); assay: competition with biotinylated HGF on plate-coated c-Met-Fc
# T2 construct: whole c-Met entry named; also called c-Met-Fc fusion protein
# [3] = target: T3, recombinant c-Met extracellular domain (human, UniProt P08581 16-932); assay: SPR kinetic analysis as in Example 2
# T3 construct: Construct used for SPR is not described further (may be the Fc chimera, as the protocol captures on anti-human Fc)
# [4] = target: T1, human c-Met on cells (NCI-H441, …); assay: NCI-H441 cell binding, anti-His fluorescence
# Description: Purified FN3 domains (50 μL/well; 0 to 1000 nM) were added to the cells for 1 hour at 4° C. in duplicate plates. Supernatant was removed and cells were washed three times with FACS stain buffer (150 μL/well, BD Biosciences, cat #554657). Cells were incubated with biotinylated-anti HIS antibody (diluted 1:160 in FACS stain buffer, 50 μL/well, R&D Systems, cat # BAM050) for 30 minutes at 4° C. Cells were washed three times with FACS stain buffer (150 μL/well), after which wells were incubated with anti mouse IgG1-Alexa 488 conjugated antibody (diluted 1:80 in FACS stain buffer, 50 μL/well, Life Technologies, cat # A21121) for 30 minutes at 4° C. Cells were washed three times with FACS stain buffer (150 μL/well) and left in FACS stain buffer (50 μL/well). Total fluorescence was determined using an Acumen eX3 reader. Data were plotted as raw fluorescence signal against the logarithm of the FN3 domain molar concentration and fitted to a sigmoidal dose-response curve with variable slope using GraphPad Prism 4 (GraphPad Software) to calculate EC₅₀ values.
# [5] = target: T3, recombinant c-Met extracellular domain; assay: SPR (ProteOn) per Example 3
# Text: (§1) Select EGFR/c-Met molecules were characterized for their affinity to both EGFR and c-Met, their ability to inhibit EGFR and c-Met autophosphorylation, and their effect on proliferation of HGF cells. Binding affinity of the bispecific EGFR/c-Met molecules to recombinant EGFR and/or c-Met extracellular domain was further by surface Plasmon resonance methods using a Proteon Instrument (BioRad) according to protocol described in Example 3.
# [6] = target: T4, recombinant human extracellular domain of EGFR fused to an IgG1 Fc (human, UniProt P00533 25-645); assay: SPR (ProteOn) per Example 3
# T4 construct: Bought (R&D Systems); captured on anti-human Fc IgG for SPR; also called EGFR-Fc
# Text: as §1
# [7] = target: T1, human c-Met on cells (NCI-H441, …); assay: cell-based or functional assay; remark: listed apart in the source
# [8] = target: human EGFR on cells (A431, NCI-H292, NCI-H322, NCI-H441) (human, UniProt P00533 25-1210); assay: cell-based or functional assay
Binder,pMet inhibition in H441 cells IC50 [1],IC50 [2],Kd [3],Inhibition of proliferation of U87-MG cells IC50 [1],EC50 [4],Kd [5],Kd [6],pMet inhibition in H441 cells IC50 [7],pEGFR inhibition in H292 cells IC50 [8]
"P114AR7P95-D3 (designed binder, not shown: small tags and cut ends) LPAPKNLVVSRVTEDSARLSWTAPDAAFDSFWIRYFEFLGSGEAIVLTVPGSERSYDLTGLKPGTEYVVNIMGVKGGSISYPLSAIFTT",4.6 nM,0.2 nM,0.3 nM,,,,,,
"P114AR7P92-G8 (designed binder, not shown: small tags and cut ends) LPAPKNLVVSRVTEDSARLSWTAPDAAFDSFVIRYFEFLGSGEAIVLTVPGSERSYDLTGLKPGTEYVVQILGVKGGYISIPLSAIFTT",155 nM,1.6 nM,1 nM,124 nM,5.9 nM,,,,
"P114AR7P95-H8 (designed binder, not shown: small tags and cut ends) LPAPKNLVVSRVTEDSARLSWTAPDAAFDSFWIRYFEFVSKGEAIVLTVPGSERSYDLTGLKPGTEYVVNIMGVKGGSISPPLSAIFTT",210 nM,,3.7 nM,281 nM,4.1 nM,,,,
"P114AR7P94-E5 (designed binder, not shown: small tags and cut ends) LPAPKNLVVSRVTEDSARLSWTAPDAAFDSFWIRYFEFLGSGEAIVLTVPGSERSYDLTGLKPGTEYAVNIMGVKGGRVSVPLSAIFTT",124 nM,0.7 nM,4.2 nM,196 nM,3.4 nM,,,,
"P114AR7P92-F3 (designed binder, not shown: small tags and cut ends) LPAPKNLVVSRVTEDSARLSWTAPDAAFDSFWIRYFEFLGSGEAIVLTVPGSERSYDLTGLKPGTEYIVNIMGVKGGSISHPLSAIFTT",8.3 nM,0.2 nM,0.4 nM,2.7 nM,,,,,
"P114AR7P94-A3 (designed binder, not shown: small tags and cut ends) LPAPKNLVVSRVTEDSARLSWTAPDAAFDSFWIRYFEFLGSGEAIVLTVPGSERSYDLTGLKPGTEYVVNIMGVKGGKISPPLSAIFTT",5 nM,0.2 nM,0.4 nM,9.3 nM,1.4 nM,,,,
"P114AR7P92-F6 (designed binder, not shown: small tags and cut ends) LPAPKNLVVSRVTEDSARLSWTAPDAAFDSFWIRYFEFLGSGEAIVLTVPGSERSYDLTGLKPGTEYVVNILGVKGGGLSVPLSAIFTT",165 nM,2.2 nM,3.1 nM,350 nM,4.9 nM,,,,
"P114AR7P93-G8 (designed binder, not shown: small tags and cut ends) LPAPKNLVVSRVTEDSARLSWTAPDAAFDSFWIRYFEFLGSGEAIVLTVPGSERSYDLTDLKPGTEYGVTINGVKGGRVSTPLSAIFTT",460 nM,1 nM,6.9 nM,104 nM,3.8 nM,,,,
"P114AR5P75-E9 (designed binder, not shown: small tags and cut ends) LPAPKNLVVSRVTEDSARLSWTAPDAAFDSFFIRYDEFLRSGEAIVLTVPGSERSYDLTGLKPGTEYWVTILGVKGGLVSTPLSAIFTT",1.42 µM,51.9 nM,45.8 nM,1190 nM,,,,,
"P114AR7P95-B9 (designed binder, not shown: small tags and cut ends) LPAPKNLVVSRVTEDSARLSWTAPDAAFDSFWIRYFEFLGSGEAIVLTVPGSERSYDLTGLKPGTEYVVQILGVKGGSISVPLSAIFTT",9.8 nM,0.3 nM,,17.4 nM,,,,,
"P114AR7P93-H9 (designed binder, not shown: small tags and cut ends) LPAPKNLVVSRVTEDSARLSWTAPDAAFDSFWIRYFEFLGSGEAIVLTVPGSERSYDLTGLKPGTEYVVQIIGVKGGHISLPLSAIFTT",288 nM,2.9 nM,3.3 nM,270 nM,12.9 nM,,,,
"P114AR7P95-F10 (designed binder, not shown: small tags and cut ends) LPAPKNLVVSRVTEDSARLSWTAPDAAFDSFWIRYFEFTTAGEAIVLTVPGSERSYDLTGLKPGTEYVVNIMGVKGGSISPPLSAIFTT",188 nM,1.4 nM,4.2 nM,130 nM,4.4 nM,,,,
"ECB95 (designed binder, not shown: small tags and cut ends, Bispecific: P54AR4-83v22, (AP)5, P114AR9P121-A6v2) MLPAPKNLVVSEVTEDSARLSWDDPWAFYESFLIQYQESEKVGEAIVLTVPGSERSYDLTGLKPGTEYTVSIYGVHNVYKDTNIRGLPLSAIFTTAPAPAPAPAPLPAPKNLVVSRVTEDSARLSWTAPDAAFDSFWIRYFEFVGSGEAIVLTVPGSERSYDLTGLKPGTEYVVNILGVKGGSISPPLSAIFTT",,,,,,6.2 nM,1.1 nM,179 nM,13.6 nM
"ECB94 (designed binder, not shown: small tags and cut ends, Bispecific: P54AR4-83v22, (AP)5, P114AR7P94-A3v22) MLPAPKNLVVSEVTEDSARLSWDDPWAFYESFLIQYQESEKVGEAIVLTVPGSERSYDLTGLKPGTEYTVSIYGVHNVYKDTNIRGLPLSAIFTTAPAPAPAPAPLPAPKNLVVSRVTEDSARLSWTAPDAAFDSFWIRYFEFLGSGEAIVLTVPGSERSYDLTGLKPGTEYVVNILGVKGGKISPPLSAIFTT",,,,,,4.3 nM,1 nM,53.8 nM,5.1 nM
"ECB15 (designed binder, not shown: small tags and cut ends) MLPAPKNLVVSEVTEDSARLSWDDPWAFYESFLIQYQESEKVGEAIVLTVPGSERSYDLTGLKPGTEYTVSIYGVHNVYKDTNMRGLPLSAIFTTAPAPAPAPAPLPAPKNLVVSRVTEDSARLSWTAPDAAFDSFWIRYFEFLGSGEAIVLTVPGSERSYDLTGLKPGTEYVVNIMGVKGGKISPPLSAIFTT",,,,,,2.6 nM,0.2 nM,,4.2 nM
"ECB97 (designed binder, not shown: small tags and cut ends, Bispecific: P54AR4-83v22, (AP)5, P114AR7P95-C5v2) MLPAPKNLVVSEVTEDSARLSWDDPWAFYESFLIQYQESEKVGEAIVLTVPGSERSYDLTGLKPGTEYTVSIYGVHNVYKDTNIRGLPLSAIFTTAPAPAPAPAPLPAPKNLVVSRVTEDSARLSWTAPDAAFDSFWIRYFEFLGSGEAIVLTVPGSERSYDLTGLKPGTEYVVNILSVKGGSISPPLSAIFTT",,,,,,1.7 nM,1.3 nM,24.2 nM,16.6 nM
"ECB96 (designed binder, not shown: small tags and cut ends, Bispecific: P54AR4-83v22, (AP)5, P114AR9P122-A7v2) MLPAPKNLVVSEVTEDSARLSWDDPWAFYESFLIQYQESEKVGEAIVLTVPGSERSYDLTGLKPGTEYTVSIYGVHNVYKDTNIRGLPLSAIFTTAPAPAPAPAPLPAPKNLVVSRVTEDSARLSWTAPDAAFDSFWIRYFEFVSKGDAIVLTVPGSERSYDLTGLKPGTEYVVNILGVKGGSISPPLSAIFTT",,,,,,22.1 nM,1.6 nM,835 nM,24.7 nM

# Source: patent US20210301025A1 (published 2021)
